{"source": "the DeepSol protein solubility set"}
{"assay": "soluble on expression in E. coli; label from the status in PepcDB or PDB records"}
{"sequence": "MVEQCPALKSRIKPMLSQKRLVYKPLGSFYQVLSAEAYTKHGLNVHGVVFDELHAQPNRDLYDVMLHGSGDARKQPLFFLITTAGTDRNSICWEVHQKAEDILQGRKIDPTFYPVIYSASDTDDWTSEKVWRKVNPSLGITVDIEKLRVACENAKQNPAEENLFRQLRLNQWVKQSVRWMPMDKWDKCAFPVDAEKLRGRTCYGGLDLSSTTDITAFVLVFPPLDESDKYQILTFFWIPEENIDQRVRRDHVPYDVWERQGFLYTTEGNVVHYGFIETFIEELGMKYNIKEIAFDRWGAIQMTQNLEALGFTVVPFGQGFKDMSPPTKELMKLTLEERIAHGGHPVLRWMMDNIYVKTDPAGNIKPDKEKSTERIDGAVALIMALDRALRHDGDERNGSIYDERGILFL", "soluble on expression in E. coli": "soluble"}
{"sequence": "MVHPALEFSDCYSDSPDFRERLKCYENELEKTNKFLKDVIKDGNNVINTFKEYSLAVQKFSQTLQSFQFDFIGDTLTDDEMNIAESFREFAGLLQDVEEARMMLVQNASDLLIKPLEKFRKEQIGVTKERRKKFEKESEKYYSQLDKHVNLSSKKKETQLQEADEQLDKERQAFYESSVEYVYQIQQVQEKKKFDVVEPVLAFLQSILTLNNLTVEMYTFRNKGTKCNTGEIPFQKVQFCTIQVDISTFMVHFCTFKLYFCTFKIP", "soluble on expression in E. coli": "not soluble"}
{"sequence": "MSKRRVVVTGMGMLSPVGNTVESSWKALLAGQSGIVNIEHFDTTNFSTRFAGLVKGFDCEQYMSKKDARKMDLFIQYGIAAGIQALEDSGLEVNEENAARIGVAIGSGIGGLELIETGHQALIEKGPRKVSPFFVPSTIVNMIAGNLSIMRGLRGPNIAISTACTTGLHNIGHAARMIAYGDADAMVAGGAEKASTPLGMAGFGAAKALSTRNDEPQKASRPWDKDRDGFVLGDGAGIMVLEEYEHAKARGAKIYAEVVGFGMSGDAYHMTSPSEDGSGGALAMEAAMRDAGVTGEQIGYVNAHGTSTPAGDVAEVKGIKRALGEAGTKQVLVSSTKSMTGHLLGAAGSVEAIITVMSLVDQMVPPTINLDNPEEGLGVDLVPHVARKVESMEYAMCNSFGFGGTNGSLIFKRM", "soluble on expression in E. coli": "not soluble"}
{"sequence": "MKFNIRGENIEVTPALKEYVEKKLSKLERYFDTFPEIKVNLKVYSDKQRVEVTIPFTDLLLRAEETNSDMYAAIDLVVDKIERQIRKHKTKVNRKLREKGSIKTNFILPEAVAVLDEVEEDELELVRTKRFDLKPMDVEEAILQMDMLGHNFFVFTNADTNETNVVYGRKDGKYGLIETKLEHHHHHH", "soluble on expression in E. coli": "soluble"}
{"sequence": "MEKPGHETDIAGSRRTHLKKSFKSTLRHLLTACSKQVVVNLHQTIEEEFDEQCHETQVGPILDTVEELVEEQSLDPLFSDKTDVMAIAYDLTTSKKNEIQKLTVLLQRAEEQNRQKEARISMLKKQTQDLSGTADRIEKLNAGVSGYFEGKDKLPPI", "soluble on expression in E. coli": "soluble"}
{"sequence": "MMEDVGKEMSKIIQKRDINERYEELVNEVLKDQDVQAFIQANRERLTDEDIRKSYAKLYEFVQEKKKFQVNDPAMIAPGYEPRLMLNFHYIDVTYVPTADLIARQKEEEIRNRVRAMDMPKDVREANLRDFDPSSQGRAKALAEAMQFLREYPATPKEFHKGLYLQGPFGVGKSFLLGAMANALAERGFTTTIVHFPTFTVEMKQAIGRDQVGEKLDAVKKSPILMIDDIGAESMTSWIRDDVLSVILQYRMQEQLVTFFSSNLDLKALEEHLTVTQRGEQEPLKARRIMERVRYLSKEITMTGNDRRNG", "soluble on expression in E. coli": "not soluble"}
{"sequence": "IKLVIVTGMSGAGKTVAIQSFEDLGYFTIDNMPPTLVPKFLELAAQSGDTSKIAMVVDMRSRLFFREINSILDSLEINDNINFKILFLDATDTELVSRYKETRRSHPLAADGRVLDGISLERELLAPLKSMSQNVVDTSELTPRQLRKVISKEFSNQDSQSSFRIEVMSFGFKYGIPLDADLVFDVRFLPNPYYKPELRDKTGLDTEVYDYVMSFDESDDFYDHLLALIKPILPGYQNEGKSVLTVAIGCTGGQHRSTAFAHRLSEDLKADWTVNESHRDKNKR", "soluble on expression in E. coli": "not soluble"}
{"sequence": "MIIGLLNQKGGVGKTTLSVNLAASFARTGARVLLIDVDPQGSALDWAAAREGAPLFPVVGLPRATVHKEITQIGHNYDHIIIDGPPRVTDLARSALMASDFVLIPVQPSPYDIWAADGIVKLIDEARVYKENLKSAFVINRKIVNTAIGRDVGEALGVYPVHVLSANVAQRVIFAEAATQGKTVYEVDKQGLAAAEIEAVAAEIKELAQLEHHHHHH", "soluble on expression in E. coli": "not soluble"}
{"sequence": "MSLRILITGNMGYIGPVVARHLRQQYPDAWLVGLDRGWFAHCLSDPRQLPEVVLDQQWFGDVRDLTAQQLSGFDGVVHLAAISNDAMGKRFEQVTDAINCRASVAVAQAAAQAGVKHFVFASSCSVYGAAADGTPRSESSAVAPLTAYAHSKIDTERALAQLETDMVITCLRFATACGASPRLRLDLVLNDFVASAVANGTVEVLSDGSPWRPLIHVRDMARAIDWALGRTPLAGGRFLAVNAGAEQWNVQIRDLAQAVGAAMPSATVSISTTAPADNRSYRVDFSLFQRLAPQHQPQQTLQSTITELRDDLLRAGFADGDFRQSSDFIRLRILQQLVDSGALAADLRAEGHHHHHH", "soluble on expression in E. coli": "soluble"}
{"sequence": "MGSDKIHHHHHHMDNSEEKKLEALGAFEISRKMLALAQKNEKSNIFLNAGRGNPNWIQTLARLAFVRLVQFGVTESKLTINNGIMAGYINTDGIRERLFAFLDPDKNDEDKFLIDAVNYCHTELGLNRDKVVAEWVNGAVANNYPVPDRCLVNTEKIINYFLQELSYKDANLAEQTDLFPTEGGTAAIVYAFHSLAENHLLKKGDKIAINEPIFTPYLRIPELKDYELVEVDLHSYEKNDWEIEPNEIEKLKDPSIKALIVVNPTNPTSKEFDTNALNAIKQAVEKNPKLMIISDEVYGAFVPNFKSIYSVVPYNTMLVYSYSKLFGCTGWRLGVIALNEKNVFDDNIAHLDKVELRQLHKRYSSVVLDPDKMKFIDRLCADSRSIGLYHTAGLSTPQQIMEALFSMTHLLTSTNGGSDDPYIDIARKLVSERYDQLHDAMQAPKDETDTNTHYYSLIDIYRLAEKIYGKEFRDYLTNNFEQVDFLLKLAEKNGVVLVDGVGFGAKPGELRVSQANLPTEDYALIGKQVLELLKEYYEEFKQNN", "soluble on expression in E. coli": "not soluble"}
{"sequence": "MSMLLGDHPELRSRAREIASLAARVVEQVNSMPAGEQKRLLSEQYPELARFEEQREKGDKGLPPLPGAVEGRVKLRFAPNPDFVIHMGNARPAIVNHEYARMYKGRMVLRFEDTDPRTKTPLREAYDLIRQDLKWLGVSWDEEYIQSLRMEVFYSVARRAIERGCAYVDNCGREGKELLSRGEYCPTRDLGPEDNLELFEKMLEGEFYEGEAVVRMKTDPRHPNPSLRDWVAMRIIDTEKHPHPLVGSRYLVWPTYNFAVSVDDHMMEITHVLRGKEHQLNTEKQLAVYRCMGWRPPYFIHFGRLKLEGFILSKSKIRKLLEERPGEFMGYDDPRFGTIAGLRRRGVLAEAIRQIILEVGVKPTDATISWANLAAANRKLLDERADRIMYVEDPVEMEVELAQVECRAAEIPFHPSRPQRKRRITLCTGDKVLLTREDAVEGRQLRLMGLSNFTVSQGILREVDPSLEYARRMKLPIVQWVKKGGEASVEVLEPVELELRRHQGYAEDAIRGYGVDSRLQFVRYGFVRVDSVEDGVYRVIYTHK", "soluble on expression in E. coli": "soluble"}
{"sequence": "MKKEKDLSVAVLIDGDNASSEKMEDVMRFVSRYGAAVVRRIYGDWTKKSLSGWKDAARDYSFRMVQASSFVPGKNTTDIALVMDAMDILHEGRVGCFCLVASDGDYTLLAQRIRESGLTVLGYGEGKTPAALVRSCTEFLLADRKEEKPFQENTPEFFIQRDMEYFDKAFEQAADGKAEVSLSLIGGVLKKLMPKFKVKRYGCRTLGKLYERLEKYELVKTGKGVAGLVRIKS", "soluble on expression in E. coli": "not soluble"}
{"sequence": "MGPYNYGWHDSDEAGKKARRGLDEDVVRYISAQKNEPEWMLEQRLKALNTFEKKPMPTWGPDLSYINFDDFKYYVRSTEKQATTWDDLPEDIKNTYDKLGIPEAEKQRLVAGVAAQYESEVVYHQIREDLETQGVIFLDTDTALKEHPELFQEYFGTVVPAGDNKFSALNSAVWSGGSFVYVPKGVHVEIPLQAYFRINTENMGQFERTLIIVDEGAYVHYVEGCTAPIYQSDSLHSAVVEIIVKKNARCRYTTIQNWSNNVLNLVTQRSKVEEGGTMEWVDGNIGSKVTMKYPAVWMVGPHAKGEVLSAAFAGEGQIQDTGAKMQHMAPYTSSNIVSKSVARSGGRAAYRGLVRVAANAHHSVSNVECDALLVDNISRSDTYPYNDIRNDHVSLGHEATVSQVSEEQLFYLQSRGIAEDEAMAMIVRGFVEPIAKELPMEYALELNRLIELQMEGSVG", "soluble on expression in E. coli": "not soluble"}
